Measurements: patent US20040146984

Tests used:
[1] = tested on: peptide in which the LPSTGE was randomly placed (TEPGSL)
[2] = target: native bovine serum albumin (UniProt P02769)
[3] = tested on: peptide in which the LPSTGE was reversed (EGTSPL)
[4] = tested on: T1, LPXTG-containing peptide KRQLPSTGETANPFY from the streptococcal M6 protein
T1 sequence: KRQLPSTGETANPFY

Sequence of native bovine serum albumin (P02769 25-607): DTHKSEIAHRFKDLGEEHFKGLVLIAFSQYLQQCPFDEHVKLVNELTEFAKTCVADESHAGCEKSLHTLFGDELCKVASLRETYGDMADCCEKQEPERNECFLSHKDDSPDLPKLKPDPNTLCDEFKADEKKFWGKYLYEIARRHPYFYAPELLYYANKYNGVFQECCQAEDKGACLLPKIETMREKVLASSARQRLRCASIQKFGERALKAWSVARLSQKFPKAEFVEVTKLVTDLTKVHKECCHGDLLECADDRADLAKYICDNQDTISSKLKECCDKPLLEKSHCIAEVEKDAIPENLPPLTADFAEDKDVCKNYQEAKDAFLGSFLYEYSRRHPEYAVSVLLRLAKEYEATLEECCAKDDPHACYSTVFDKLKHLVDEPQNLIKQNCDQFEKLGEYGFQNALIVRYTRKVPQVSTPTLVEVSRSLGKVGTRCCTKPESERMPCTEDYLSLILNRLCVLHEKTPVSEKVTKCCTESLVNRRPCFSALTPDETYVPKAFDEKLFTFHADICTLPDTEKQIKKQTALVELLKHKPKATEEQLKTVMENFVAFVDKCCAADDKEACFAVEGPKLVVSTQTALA

## LPXTGase
[1]
  cleavage of bead-bound or free peptide: no cleavage was observed (not shown)
[2]
  cleavage (SDS-PAGE for degradation): No cleavage was observed when native bovine serum albumin was reacted in a similar way
[3]
  cleavage of bead-bound or free peptide: no cleavage was observed (not shown)
[4]
  % of control (Calcium chloride 20 mM): 23 % of control
  % of control (Control, no salt): 100 % of control
  % of control (EDTA 20 mM): 5.2 % of control
  % of control (Hydroxylamine-HCl 100 mM): 27 % of control
  % of control (Magnesium chloride 20 mM): 20 % of control
  % of control (Potassium chloride 100 mM): 20 % of control
  % of control (Putrescene chloride 20 mM): 21 % of control
  % of control (Sodium chloride 100 mM): 16 % of control
  % of control (Sodium phosphate 20 mM): 49 % of control
  % of control (Sodium sulfate 20 mM): 57 % of control
  Km (Lineweaver-Burk plot of cleavage of 125I-labeled peptide, 20 to 240 µM, 2.4 µM enzyme, 30 min): Km of 0.26 mM
  Vmax (Lineweaver-Burk plot of cleavage of 125I-labeled peptide): Vmax of 67 µM in 30 min when 2.4 µM of enzyme was used in the assay
  cleavage of bead-bound peptide, N-terminal sequencing of the fragment: the enzyme cleaved after glutamic acid within the LPSTGE (SEQ ID NO:3) sequence releasing the TANPFY (SEQ ID NO:6) peptide fragment
  cleavage of free peptide, sequencing of the fragments: the enzyme cleaved the free KRQLPSTGETANPFY (SEQ ID NO:2) peptide at two sites, after the serine and the glutamic acid of LPSTGE
  peptide cleaved, cpm (Calcium chloride 20 mM): 9710 cpm
  peptide cleaved, cpm (Control, no salt): 41500 cpm
  peptide cleaved, cpm (EDTA 20 mM): 2150 cpm
  peptide cleaved, cpm (Hydroxylamine-HCl 100 mM): 11200 cpm
  peptide cleaved, cpm (Magnesium chloride 20 mM): 8620 cpm
  peptide cleaved, cpm (Potassium chloride 100 mM): 8610 cpm
  peptide cleaved, cpm (Putrescene chloride 20 mM): 8710 cpm
  peptide cleaved, cpm (Sodium chloride 100 mM): 6720 cpm
  peptide cleaved, cpm (Sodium phosphate 20 mM): 20600 cpm
  peptide cleaved, cpm (Sodium sulfate 20 mM): 23500 cpm
